This passage reports Kd, binding result and binding signal results from PMC4132754 (Nucleic Acids Research, 2014).

What all share (test): MST
The target in series [1] is T1, UPF1 ΔStalk (human, UniProt Q92900-2 1-1118, del271-433).
T1 sequence: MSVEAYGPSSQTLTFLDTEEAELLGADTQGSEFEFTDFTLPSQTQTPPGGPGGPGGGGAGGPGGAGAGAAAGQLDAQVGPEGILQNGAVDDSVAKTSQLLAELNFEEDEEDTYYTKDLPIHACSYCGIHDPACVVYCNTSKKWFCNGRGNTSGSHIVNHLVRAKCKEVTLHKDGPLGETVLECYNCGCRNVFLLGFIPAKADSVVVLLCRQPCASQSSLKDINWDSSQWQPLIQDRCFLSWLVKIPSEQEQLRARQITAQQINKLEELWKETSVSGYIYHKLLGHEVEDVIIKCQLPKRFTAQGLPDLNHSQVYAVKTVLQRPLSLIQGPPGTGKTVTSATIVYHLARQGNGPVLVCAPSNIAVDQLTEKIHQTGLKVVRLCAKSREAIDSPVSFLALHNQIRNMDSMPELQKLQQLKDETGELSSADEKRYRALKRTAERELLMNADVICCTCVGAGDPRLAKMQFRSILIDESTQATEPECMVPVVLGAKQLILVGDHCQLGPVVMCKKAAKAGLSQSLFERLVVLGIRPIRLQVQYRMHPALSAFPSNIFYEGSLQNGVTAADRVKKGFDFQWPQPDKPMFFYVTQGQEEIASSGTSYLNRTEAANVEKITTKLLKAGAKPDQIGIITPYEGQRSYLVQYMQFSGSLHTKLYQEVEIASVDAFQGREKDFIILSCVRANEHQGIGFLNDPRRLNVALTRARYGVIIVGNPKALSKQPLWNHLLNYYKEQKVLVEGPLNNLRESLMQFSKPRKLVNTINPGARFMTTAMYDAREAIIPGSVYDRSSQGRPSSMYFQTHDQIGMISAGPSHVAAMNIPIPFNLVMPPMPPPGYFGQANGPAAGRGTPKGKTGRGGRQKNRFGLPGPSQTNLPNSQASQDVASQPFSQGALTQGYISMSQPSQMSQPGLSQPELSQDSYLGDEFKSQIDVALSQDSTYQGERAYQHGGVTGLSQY

Series [2] has as its target T2, UPF1 WT (human, UniProt Q92900-2 1-1118).
T2 sequence: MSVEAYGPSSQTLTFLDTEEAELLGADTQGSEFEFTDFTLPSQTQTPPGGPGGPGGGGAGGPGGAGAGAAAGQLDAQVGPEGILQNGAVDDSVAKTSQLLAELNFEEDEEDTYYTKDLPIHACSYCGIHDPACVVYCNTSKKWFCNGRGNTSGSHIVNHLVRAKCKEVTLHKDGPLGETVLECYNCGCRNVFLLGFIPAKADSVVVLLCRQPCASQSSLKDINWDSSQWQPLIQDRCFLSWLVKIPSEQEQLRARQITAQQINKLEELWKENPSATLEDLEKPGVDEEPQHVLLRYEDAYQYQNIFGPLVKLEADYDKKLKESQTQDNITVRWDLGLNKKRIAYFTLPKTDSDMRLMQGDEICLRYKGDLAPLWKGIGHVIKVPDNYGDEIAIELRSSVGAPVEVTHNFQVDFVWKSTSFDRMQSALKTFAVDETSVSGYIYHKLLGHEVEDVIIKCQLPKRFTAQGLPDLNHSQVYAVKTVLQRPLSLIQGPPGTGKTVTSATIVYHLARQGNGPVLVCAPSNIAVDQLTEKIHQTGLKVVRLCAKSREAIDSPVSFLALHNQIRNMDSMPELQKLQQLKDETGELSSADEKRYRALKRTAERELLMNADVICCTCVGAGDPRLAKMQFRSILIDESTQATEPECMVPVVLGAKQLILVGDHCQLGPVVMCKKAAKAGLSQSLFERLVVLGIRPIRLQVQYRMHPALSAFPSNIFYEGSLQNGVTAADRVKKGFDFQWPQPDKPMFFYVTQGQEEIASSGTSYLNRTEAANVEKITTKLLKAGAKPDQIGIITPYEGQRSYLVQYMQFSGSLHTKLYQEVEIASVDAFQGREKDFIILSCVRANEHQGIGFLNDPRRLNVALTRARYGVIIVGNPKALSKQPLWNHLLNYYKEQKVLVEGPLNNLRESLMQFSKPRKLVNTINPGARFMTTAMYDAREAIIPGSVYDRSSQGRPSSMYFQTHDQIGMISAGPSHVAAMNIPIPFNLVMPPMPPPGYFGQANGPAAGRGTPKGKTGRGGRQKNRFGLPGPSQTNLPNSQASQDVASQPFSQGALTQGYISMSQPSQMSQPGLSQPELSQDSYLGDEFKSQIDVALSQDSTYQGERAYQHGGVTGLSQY

In series [3] the target is SMG6 (human, UniProt Q86US8 1-1419).
Chain of SMG6 (Q86US8 whole entry): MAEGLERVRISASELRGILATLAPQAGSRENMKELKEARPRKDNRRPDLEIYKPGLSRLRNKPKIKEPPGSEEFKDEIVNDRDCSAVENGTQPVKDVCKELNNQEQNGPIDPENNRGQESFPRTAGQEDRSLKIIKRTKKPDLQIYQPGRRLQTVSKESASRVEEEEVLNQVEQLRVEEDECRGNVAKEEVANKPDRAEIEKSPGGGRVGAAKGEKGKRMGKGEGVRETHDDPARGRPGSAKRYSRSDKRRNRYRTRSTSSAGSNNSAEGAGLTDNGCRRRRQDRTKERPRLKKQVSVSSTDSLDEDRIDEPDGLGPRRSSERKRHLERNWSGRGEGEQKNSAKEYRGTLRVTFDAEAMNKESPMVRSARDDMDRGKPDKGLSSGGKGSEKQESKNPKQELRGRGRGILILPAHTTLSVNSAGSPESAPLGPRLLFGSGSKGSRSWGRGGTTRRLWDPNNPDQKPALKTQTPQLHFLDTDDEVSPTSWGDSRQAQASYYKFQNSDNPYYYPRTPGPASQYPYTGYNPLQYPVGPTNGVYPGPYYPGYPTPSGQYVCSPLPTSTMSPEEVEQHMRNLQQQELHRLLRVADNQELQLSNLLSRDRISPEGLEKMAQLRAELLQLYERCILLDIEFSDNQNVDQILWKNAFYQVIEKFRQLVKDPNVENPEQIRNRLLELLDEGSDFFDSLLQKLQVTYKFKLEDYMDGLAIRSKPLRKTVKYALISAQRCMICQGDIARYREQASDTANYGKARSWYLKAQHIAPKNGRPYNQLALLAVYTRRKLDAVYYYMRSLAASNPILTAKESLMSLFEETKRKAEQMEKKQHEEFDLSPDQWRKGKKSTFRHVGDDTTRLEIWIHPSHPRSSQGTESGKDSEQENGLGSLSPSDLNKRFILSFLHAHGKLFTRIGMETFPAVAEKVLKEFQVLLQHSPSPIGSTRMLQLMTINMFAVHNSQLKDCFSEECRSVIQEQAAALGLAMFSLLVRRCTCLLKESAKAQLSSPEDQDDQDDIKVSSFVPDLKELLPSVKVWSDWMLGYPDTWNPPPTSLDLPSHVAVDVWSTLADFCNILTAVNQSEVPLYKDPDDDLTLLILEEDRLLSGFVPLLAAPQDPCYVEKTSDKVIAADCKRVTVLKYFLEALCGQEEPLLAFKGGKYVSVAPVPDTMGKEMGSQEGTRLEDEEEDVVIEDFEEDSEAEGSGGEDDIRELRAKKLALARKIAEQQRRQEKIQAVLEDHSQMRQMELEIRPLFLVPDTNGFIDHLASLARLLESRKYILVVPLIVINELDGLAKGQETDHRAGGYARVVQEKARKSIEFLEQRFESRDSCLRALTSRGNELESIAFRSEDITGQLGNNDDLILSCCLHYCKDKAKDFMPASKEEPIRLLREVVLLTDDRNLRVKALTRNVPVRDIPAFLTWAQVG
Series [4] has as its target T3, UPF1 Δ1C (human, UniProt Q92900-2 1-1118, del561-608).
T3 sequence: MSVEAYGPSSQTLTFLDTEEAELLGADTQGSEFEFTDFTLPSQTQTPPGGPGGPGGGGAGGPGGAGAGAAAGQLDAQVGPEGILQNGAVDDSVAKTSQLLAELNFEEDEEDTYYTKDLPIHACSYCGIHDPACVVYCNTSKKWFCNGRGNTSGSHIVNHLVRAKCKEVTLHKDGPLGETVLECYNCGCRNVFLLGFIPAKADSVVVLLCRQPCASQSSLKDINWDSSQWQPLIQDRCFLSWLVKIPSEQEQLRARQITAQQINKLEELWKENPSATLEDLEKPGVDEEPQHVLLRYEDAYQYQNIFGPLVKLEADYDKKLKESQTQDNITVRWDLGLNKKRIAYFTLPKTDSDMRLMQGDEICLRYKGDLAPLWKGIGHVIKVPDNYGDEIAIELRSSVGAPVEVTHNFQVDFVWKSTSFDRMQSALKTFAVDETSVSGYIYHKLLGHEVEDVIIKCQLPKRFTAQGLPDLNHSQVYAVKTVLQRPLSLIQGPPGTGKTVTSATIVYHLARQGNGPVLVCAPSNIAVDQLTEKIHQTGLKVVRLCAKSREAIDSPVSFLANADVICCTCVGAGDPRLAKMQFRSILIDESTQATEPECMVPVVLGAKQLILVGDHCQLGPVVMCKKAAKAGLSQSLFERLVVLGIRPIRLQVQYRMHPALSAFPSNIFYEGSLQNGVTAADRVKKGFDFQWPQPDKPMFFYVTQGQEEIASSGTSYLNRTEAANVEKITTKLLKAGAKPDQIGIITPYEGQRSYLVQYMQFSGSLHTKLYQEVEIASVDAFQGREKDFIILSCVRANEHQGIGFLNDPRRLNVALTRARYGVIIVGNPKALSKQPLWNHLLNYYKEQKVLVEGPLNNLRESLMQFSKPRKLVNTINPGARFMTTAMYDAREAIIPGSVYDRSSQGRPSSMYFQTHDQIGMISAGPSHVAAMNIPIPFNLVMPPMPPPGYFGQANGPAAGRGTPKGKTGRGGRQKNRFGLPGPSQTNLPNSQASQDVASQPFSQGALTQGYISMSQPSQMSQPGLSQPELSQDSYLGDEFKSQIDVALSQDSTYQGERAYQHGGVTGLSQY

With UUUUUUUUUUUUUUUUUUUUUUUUUUUUUU (ssRNA) [U30 RNA], the Kd in series [1] came out at 6.51 nM; in series [2] it was 1.48 nM. Further, the binding result in series [3] is “no binding”. Also, the binding signal in series [4] was 32.2 fold lower affinity than WT.

The Kd is a measure of binding affinity in units of concentration.
